# Test results from patent publication US20220372114A1 (CURIA IP, published 2022).
# Where “and” joins values, the source holds several entries; their conditions need not be identical. Equal values may be shown once.
# Assays:
# [1] = target: SARS-CoV-1 spike on pseudovirus (SARS-CoV-1, UniProt P59594 14-1255); test: cell-based or functional assay
# SARS-CoV-1 spike trimer [2] = target: T1, SARS-CoV-1 spike trimer (SARS-CoV-1, UniProt P59594 14-1195); test: ELISA, plate-coated SARS-CoV-1 spike
# SARS-CoV-1 spike trimer [3] = target: T1, SARS-CoV-1 spike trimer; test: ELISA, plate-coated SARS-CoV-1 spike, purified mouse antibody
binder,measurement,setting,value
"10-B13-A (human Fc IgG2 chimera) (antibody, V domains shown) VH: QVQLQQSGAELVKPGASVKISCKASGYAFSNYWMNWVKQRPGKGLEWIGQIYPGDGDTNYNGNFKGKATLTADKSSSTAYIQLSSLTSEDSAVYFCGRGFIATVVEVFDHWGLGTTLTVSS VL: DIQMTQTTSSLSASLGDRVTISCRASQDISNYLNWYQQKPDGTVKLLIYYTSRLQSGVPSRFSGSGTGTDYSLTISNLEQEDIATYFCQQGNTLPWTFGGGTKLEIK","IC50, SARS-CoV-1 pseudovirus ACE2+TMPRSS2+ target cell infection assay",[1],~33 ug/ml and ~220 nM
"10-B13-A (antibody, V domains shown) VH: QVQLQQSGAELVKPGASVKISCKASGYAFSNYWMNWVKQRPGKGLEWIGQIYPGDGDTNYNGNFKGKATLTADKSSSTAYIQLSSLTSEDSAVYFCGRGFIATVVEVFDHWGLGTTLTVSS VL: DIQMTQTTSSLSASLGDRVTISCRASQDISNYLNWYQQKPDGTVKLLIYYTSRLQSGVPSRFSGSGTGTDYSLTISNLEQEDIATYFCQQGNTLPWTFGGGTKLEIK",EC50,SARS-CoV-1 spike trimer [2],~1 nM
same,EC50,SARS-CoV-1 spike trimer [3],0.96 nM
